Laboratory results: patent US20110167521

Key:
Assay in all cases: cell_activity
[1] = system: ZFP 13722-NtERF3 (artificial); conditions: homozygous T2 immature seed, event 5227-12, p=0.025; no apparent effect in heterozygous
[2] = system: ZFP 13722-KRAB1 (artificial); conditions: homozygous T2 immature seed, event 5212-4; no apparent effect in heterozygous
[3] = system: ZFP 14025-VP16 (artificial); conditions: callus, control 2.90; 27% up-regulation p=0.05; more than 3-fold in some T0 events

Sequence: AAGGAGAATTTTAGGGTTTGGGGAGACT (double strand) [FatB5 13722 target]
- activity (% FatB5 mRNA reduction) [1]: 21
- activity (% FatB5 mRNA reduction) [2]: 15

Sequence: CGTGGAGACGTCAAAAGA (double strand) [KASII 14025 target]
- activity (KasII/tubulin mRNA ratio) [3]: 3.69
